Patent US20210189005A1 (RALLYBIO IPA, published 2021)
Read-outs that look alike come from different tables or passages of the source.

B1: mouse monoclonal antibody SZ21 (antibody, V domains shown)
VH: LQESGPELVNPGASMKISCKASGYSFTGYTMNWVKQSHGKNLEWIGLINPYHGGSSYNQKFKGKATLTVDKSSSTAYMELLSLTSEDSAVYFCARRDANYVFFFDYWGQGTTVT
VL: ELTQSPALMSASPGEKVTMTCSASSGVSYIHWYQQKSGTSPKRWIYDTSKLASGVPARFSGSGSGTSYSLTISSMEAEDAATYYCQQWSSKPPTFGGGTKLE
notes: Bought murine mAb; variable regions as in Genebank AF354053 and AF354054 (the printed entries look truncated at both ends); also called clone SZ21; anti-β3 mAb (clone SZ21)
B2: mAb 26.4 F(ab')2 fragment (other)
VH: QVQLQQSGPGLVKPSQTLSLTCAISGDSVSSNSAAWNWIRQSPSRGLEWLGRTYFRSNWYNDYAASVKSRITINQDTSKNQLSLQLNSVTPEDTAMYYCARDGAWGGSSWWPGLPHHYYSGMDVWGQGTTVTVSS
VL: EIVLTQSPATLSLSPGERATLSCRASQSVSSYLAWYQQKPGQAPRLLIYDASKRATGIPARFSGSGSGTDFSLTIRSLEPEDFAVYYCQQRSDWQGLTFGGGTKVEIK
B3: recombinant monoclonal antibody 26.4 IgG1 (antibody)
heavy: not shown
light: EIVLTQSPATLSLSPGERATLSCRASQSVSSYLAWYQQKPGQAPRLLIYDASKRATGIPARFSGSGSGTDFSLTIRSLEPEDFAVYYCQQRSDWQGLTFGGGTKVEIKRTVAAPSVFIFPPSDEQLKSGTASVVCLLNNFYPREAKVQWKVDNALQSGNSQESVTEQDSKDSTYSLSSTLTLSKADYEKHKVYACEVTHQGLSSPVTKSFNRGEC
notes: also called 26.4G1
B4: human HPA-1a-specific recombinant monoclonal antibody B2G1 (antibody, V domains shown)
VH: QVQLVQSGAEVKRPGAAVKVSCKASGYRFTGHYMHWVRQAPGQGLEWMGWINPNSGGTSYAQKFQGRVTMTRDTSISTAYMEMTRLRYDDTAVYYCAAGGLGGYYYYAMNIWGQGTTVTVSS
VL: QSALTQPASVSGSPGQSITISCTGTSSDVGGYNYVSWYQQHPGKAPKLMIYEVSNRPSGVSNRFSGSKSGNTASLTISGLQAEDEADYYCSSYTSSSTWVFGGGTKLTVL
notes: Generated by phage display and produced recombinantly as a human IgG detected by anti-human IgG; also called clone B2G1

What was measured:
[1] = molecular target: T1, GPVI (hDID2) negative control peptide (UniProt Q9HCN6 21-205); assay: domain-deletion peptide ELISA
T1 construct: domain: hDID2; also called peptide negative control
T1 sequence (looked up): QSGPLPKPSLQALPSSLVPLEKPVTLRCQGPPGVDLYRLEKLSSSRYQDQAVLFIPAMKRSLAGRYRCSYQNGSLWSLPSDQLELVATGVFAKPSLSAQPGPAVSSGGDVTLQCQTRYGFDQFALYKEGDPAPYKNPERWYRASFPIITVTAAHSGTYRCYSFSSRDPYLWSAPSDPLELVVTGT

[2] = molecular target: T2, integrin αIIbβ3 (glycoprotein IIbIIIa) bearing HPA-1a (Leu33) on intact HPA-1a-positive platelets (human, UniProt P08514 32-1039; P05106 27-788); assay: MAIPA inhibition assay on HPA-1aa platelets; blocked antibodies: polyclonal anti-HPA-1a IgG of 10 donor sera
T2 construct: whole, on cells; HPA-1ab platelets carry both allotypes; results on them are marked in the row; also called HPA-1aa platelets; HPA-1a homozygous platelets

[3] = molecular target: T1, GPVI (hDID2) negative control peptide; assay: domain-deletion peptide ELISA; remark: listed apart in the source
Experimental: Murine and human mAbs were used at concentrations of 1 and 10 μg/ml. MAb binding was detected by HRP-conjugated goat-anti-mouse IgG or HRP-conjugated goat-anti-human IgG. Absorbance at 492 nm was read on an microplate photometer (Multiskan E X, Thermo Scientific, Waltham, Mass.).

[4] = molecular target: T3, integrin αVβ3 (vitronectin receptor) purified from human placenta (human, UniProt P06756 31-1048; P05106 27-788); assay: SPR (Biacore T200), integrin amine-coupled to CM5 chip, after 120 s dissociation
T3 construct: mature; Amine-coupled to a CM5 chip at 480 RU for SPR; also called purified αVβ3; Millipore CC1018
Experimental: (§1) MAb samples were used in three different concentrations (20 μg/ml, 10 μg/ml and 5 μg/ml); the highest concentration is shown. Results are representative of the two independent experiments. […] Data presented are average RU generated by injection of three different concentrations of mAbs (20 μg/ml, 10 μg/ml and 5 g/ml). […] The percentage of antibody bound at the end of the dissociation phase was calculated by dividing the RU at the end of dissociation period by the RU at the end of association period multiplied by 100%. Data presented are average percentage calculated from three different concentrations for each mAb.
(§2) SPR technology was used to assess the binding properties of the mAbs (Biacore T200 instrument, Biacore AB, Uppsala, Sweden). […] The integrin αVβ3 was obtained from Millipore (cat. No: CC1018). The integrin αVβ3 was purified from human placenta by affinity chromatography using immobilized monoclonal antibodies to αVβ3 integrin. […] The purified βllbβ3 integrins (HPA-1a and HPA-1b antigen carrying versions) and αVβ3 were immobilized to the surface of a CM5 sensor chip on three different flow cells (FCs) at a density of 400, 340 and 480 response units (RU) respectively using standard amine coupling chemistry.

[5] = molecular target: T4, purified integrin αIIbβ3 from HPA-1aa platelets (HPA-1a antigen carrying version) (human, UniProt P08514 32-1039; P05106 27-788); assay: as above
T4 construct: mature; Amine-coupled to a CM5 chip at 400 RU for SPR; also called αIIbβ3 (HPA-1a); αIIbβ3 from HPA-1aa individuals
Experimental: as §1, §2

[6] = molecular target: T3, integrin αVβ3 (vitronectin receptor) …; assay: SPR (Biacore T200), integrin amine-coupled to CM5 chip, antibody injected 120 s
Experimental: (§3) The percentage of antibody bound at the end of the dissociation phase was calculated by dividing the RU at the end of dissociation period by the RU at the end of association period multiplied by 100%. Data presented are average percentage calculated from three different concentrations for each mAb.
(§4) SPR technology was used to assess the binding properties of the mAbs (Biacore T200 instrument, Biacore AB, Uppsala, Sweden). […] The purified βllbβ3 integrins (HPA-1a and HPA-1b antigen carrying versions) and αVβ3 were immobilized to the surface of a CM5 sensor chip on three different flow cells (FCs) at a density of 400, 340 and 480 response units (RU) respectively using standard amine coupling chemistry. An FC treated with the same chemicals but without protein was used as a reference surface. Purified monoclonal IgG samples (various concentrations) were injected over the chip surface at a flow rate of 30 μl/min. An association step of 120 sec was followed by a dissociation step of 120 sec. Regeneration of the sensor chip surface was accomplished using 10 mM Glycine-HCl (pH 1.5). The experiments were performed at 25° C. The collected data were analysed using BiaEvaluation 2.0.1 software. […] All chemicals for the Biacore experiment were purchased from GE Healthcare.

[7] = molecular target: T4, purified integrin αIIbβ3 from HPA-1aa …; assay: as above
Experimental: as §3, §4

[8] = molecular target: T3, integrin αVβ3 (vitronectin receptor) …; assay: SPR, 120 s dissociation, average of three concentrations
Experimental: as §1, §2

[9] = molecular target: T4, purified integrin αIIbβ3 from HPA-1aa …; assay: as above
Experimental: as §1, §2

T4 sequence (P08514 32-1039, form in doubt, chain 1 of 2): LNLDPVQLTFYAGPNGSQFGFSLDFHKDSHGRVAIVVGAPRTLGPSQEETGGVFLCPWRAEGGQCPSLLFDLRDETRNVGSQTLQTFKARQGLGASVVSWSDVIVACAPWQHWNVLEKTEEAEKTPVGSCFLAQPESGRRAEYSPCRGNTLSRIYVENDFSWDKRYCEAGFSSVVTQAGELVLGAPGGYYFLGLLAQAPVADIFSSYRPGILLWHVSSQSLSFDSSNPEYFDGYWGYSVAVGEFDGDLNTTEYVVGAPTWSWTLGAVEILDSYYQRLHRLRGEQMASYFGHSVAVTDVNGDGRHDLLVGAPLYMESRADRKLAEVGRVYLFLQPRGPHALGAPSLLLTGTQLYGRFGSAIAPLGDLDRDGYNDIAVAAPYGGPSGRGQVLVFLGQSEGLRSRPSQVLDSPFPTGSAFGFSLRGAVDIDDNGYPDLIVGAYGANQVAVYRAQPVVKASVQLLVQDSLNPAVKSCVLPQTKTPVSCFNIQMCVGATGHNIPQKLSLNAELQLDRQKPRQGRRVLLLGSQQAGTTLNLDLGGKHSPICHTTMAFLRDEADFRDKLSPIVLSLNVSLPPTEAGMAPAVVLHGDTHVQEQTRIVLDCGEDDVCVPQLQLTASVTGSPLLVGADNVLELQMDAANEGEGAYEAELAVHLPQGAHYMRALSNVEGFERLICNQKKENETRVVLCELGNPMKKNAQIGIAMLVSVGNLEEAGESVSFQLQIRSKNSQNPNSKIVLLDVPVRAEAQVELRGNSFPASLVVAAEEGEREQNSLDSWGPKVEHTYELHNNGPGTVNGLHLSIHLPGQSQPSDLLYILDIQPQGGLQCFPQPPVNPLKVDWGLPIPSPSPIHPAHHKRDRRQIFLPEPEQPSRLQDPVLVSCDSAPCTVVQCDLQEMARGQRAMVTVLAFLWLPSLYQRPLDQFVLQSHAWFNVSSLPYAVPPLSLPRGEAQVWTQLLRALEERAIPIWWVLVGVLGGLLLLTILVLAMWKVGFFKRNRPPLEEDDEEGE
T4 sequence (P05106 27-788, form in doubt, chain 2 of 2): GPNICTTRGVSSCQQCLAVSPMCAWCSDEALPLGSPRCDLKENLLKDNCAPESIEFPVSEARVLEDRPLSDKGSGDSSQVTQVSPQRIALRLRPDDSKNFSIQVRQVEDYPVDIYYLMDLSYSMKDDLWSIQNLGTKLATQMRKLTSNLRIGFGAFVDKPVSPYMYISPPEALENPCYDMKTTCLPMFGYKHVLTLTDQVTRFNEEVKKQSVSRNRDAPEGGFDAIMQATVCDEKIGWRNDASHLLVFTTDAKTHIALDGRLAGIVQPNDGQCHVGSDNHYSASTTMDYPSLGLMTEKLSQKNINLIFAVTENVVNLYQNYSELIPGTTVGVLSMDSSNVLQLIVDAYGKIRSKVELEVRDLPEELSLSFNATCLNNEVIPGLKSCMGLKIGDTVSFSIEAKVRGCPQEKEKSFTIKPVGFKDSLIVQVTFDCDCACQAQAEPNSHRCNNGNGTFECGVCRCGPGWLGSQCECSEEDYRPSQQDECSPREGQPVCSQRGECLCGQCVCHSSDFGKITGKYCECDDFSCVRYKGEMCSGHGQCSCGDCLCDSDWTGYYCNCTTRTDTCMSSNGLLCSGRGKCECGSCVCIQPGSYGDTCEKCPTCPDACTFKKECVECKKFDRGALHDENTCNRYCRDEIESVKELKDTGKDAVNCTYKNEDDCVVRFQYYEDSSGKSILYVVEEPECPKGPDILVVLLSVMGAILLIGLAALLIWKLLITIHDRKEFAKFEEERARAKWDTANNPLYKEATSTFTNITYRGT
T3 sequence (P06756 31-1048, form in doubt, chain 1 of 2): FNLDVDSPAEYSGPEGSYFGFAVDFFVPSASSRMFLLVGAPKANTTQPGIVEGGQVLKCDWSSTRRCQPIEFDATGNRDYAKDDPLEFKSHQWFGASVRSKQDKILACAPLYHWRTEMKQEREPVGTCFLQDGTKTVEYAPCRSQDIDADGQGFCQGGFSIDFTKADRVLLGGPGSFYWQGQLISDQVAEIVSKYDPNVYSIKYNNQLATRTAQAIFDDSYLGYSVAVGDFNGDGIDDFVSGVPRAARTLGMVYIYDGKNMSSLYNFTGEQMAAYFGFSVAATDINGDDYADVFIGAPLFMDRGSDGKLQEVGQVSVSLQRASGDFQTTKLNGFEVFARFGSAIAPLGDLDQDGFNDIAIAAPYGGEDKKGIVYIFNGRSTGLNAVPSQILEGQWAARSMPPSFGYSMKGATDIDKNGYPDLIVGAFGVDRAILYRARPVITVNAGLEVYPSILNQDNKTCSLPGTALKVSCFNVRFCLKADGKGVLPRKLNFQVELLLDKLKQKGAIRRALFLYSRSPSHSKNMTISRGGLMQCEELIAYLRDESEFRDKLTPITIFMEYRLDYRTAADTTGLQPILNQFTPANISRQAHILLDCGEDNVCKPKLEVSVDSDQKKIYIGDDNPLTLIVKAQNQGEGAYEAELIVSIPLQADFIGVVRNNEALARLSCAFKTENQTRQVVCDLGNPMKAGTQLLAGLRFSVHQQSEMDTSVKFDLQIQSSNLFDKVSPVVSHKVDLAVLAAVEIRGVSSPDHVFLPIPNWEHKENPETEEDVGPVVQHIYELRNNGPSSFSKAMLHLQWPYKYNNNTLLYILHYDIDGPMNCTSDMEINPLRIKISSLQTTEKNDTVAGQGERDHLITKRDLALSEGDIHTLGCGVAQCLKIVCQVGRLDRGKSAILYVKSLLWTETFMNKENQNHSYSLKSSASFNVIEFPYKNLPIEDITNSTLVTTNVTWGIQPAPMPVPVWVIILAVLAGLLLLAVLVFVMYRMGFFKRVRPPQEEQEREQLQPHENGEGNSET
T3 sequence (P05106 27-788, form in doubt, chain 2 of 2): as the sequence (P05106 27-788, form in doubt, chain 2 of 2) above
T2 sequence (P08514 32-1039, chain 1 of 2): as the sequence (P08514 32-1039, form in doubt, chain 1 of 2) above
T2 sequence (P05106 27-788, chain 2 of 2): as the sequence (P05106 27-788, form in doubt, chain 2 of 2) above

Row | Binder | binding result [1] | IC50 (read off the curve) [2] [µg/50 µl] | binding result [3] | % dissociated [4] [%] | bound after dissociation (RU) [4] [RU] | % dissociated [5] [%] | bound after dissociation (RU) [5] [RU] | bound (RU) [6] [RU] | bound (RU) [7] [RU] | % remaining bound at the end of the dissociation period [8] [%] | % remaining bound at the end of the dissociation period [9] [%]
1 | B1 | no binding (tested: 10 µg/ml) |  |  |  |  |  |  |  |  |  | 
2 | B2 |  | ~5 |  |  |  |  |  |  |  |  | 
3 | B3 |  |  | no binding (tested: 10 µg/ml) | 35.1 | 12.2 | 21.4 | 49.6 | 18.8 | 63.1 | 66.8 | ~81
4 | B4 |  |  | no binding (tested: 10 µg/ml) | 70.5 | 3.3 | 22 | 43.8 | 11.2 | 56.1 | 31.4 | ~81
